Laboratory results: PMC8294851

How the values were obtained:
[1] = molecular target: Neuronal SNARE complex (VAMP2 on nanolipoprotein particles with flipped t-SNAREs Syntaxin-1 and SNAP-25 on tCells) (not stated | rat) (UniProt P63045)
[2] = molecular target: Neuronal SNARE complex (VAMP2 on nanolipoprotein particles with flipped t-SNAREs Syntaxin-1 and SNAP-25 on tCells) (not stated | rat) (UniProt P63045); remark: listed apart in the source
[3] = molecular target: Neuronal SNARE complex (VAMP2 on nanolipoprotein particles with flipped t-SNAREs Syntaxin-1 and SNAP-25 on tCells) (not stated | rat) (UniProt P63045); remark: listed apart in the source

UniProt P63045, sequence (P63045 whole entry, chain 1 of 3): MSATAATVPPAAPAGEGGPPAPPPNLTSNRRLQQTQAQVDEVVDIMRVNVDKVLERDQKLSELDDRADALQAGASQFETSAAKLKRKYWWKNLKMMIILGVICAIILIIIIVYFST
UniProt P63045, sequence (P32851 186-288, chain 2 of 3, further chain): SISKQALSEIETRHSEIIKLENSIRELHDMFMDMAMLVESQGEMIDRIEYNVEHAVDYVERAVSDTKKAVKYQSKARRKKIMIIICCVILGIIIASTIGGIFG
UniProt P63045, sequence (P60881 2-206, chain 3 of 3, further chain): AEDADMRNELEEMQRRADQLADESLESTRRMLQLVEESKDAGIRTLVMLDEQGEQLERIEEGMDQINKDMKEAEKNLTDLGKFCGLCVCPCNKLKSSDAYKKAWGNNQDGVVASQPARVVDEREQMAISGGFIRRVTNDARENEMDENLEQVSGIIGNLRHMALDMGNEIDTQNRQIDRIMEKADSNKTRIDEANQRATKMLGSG

Full-length Synaptotagmin-1 (pET28a-SUMO-synaptotagmin 1, residues 57-421), reconstituted into nanolipoprotein particles (from UniProt P21707 57-421) (natural protein)
mean single-pore conductance, fusion of NLPs carrying Syt1 and VAMP2 with flipped t-SNARE cells pre-incubated with diC8PI(4,5)P2, compared to SNARE-alone fusion [1]: 3 fold

Synaptotagmin-1 C2AB R398Q, R399Q (from UniProt P21707 96-421) (domain or fragment)
mean single open-pore conductance, mutant C2AB with VAMP2 NLPs and flipped t-SNARE cells, 100 μM free calcium and exogenous PI(4,5)P2, compared to wild-type C2AB [2]: 3 fold smaller

Synaptotagmin-1 soluble C2AB domains (rat Syt1 residues 96-421) (from UniProt P21707 96-421) (domain or fragment)
mean single fusion pore conductance, 10 μM soluble C2AB with VAMP2 NLPs and flipped t-SNARE cells, 100 μM calcium and exogenous PI(4,5)P2, compared to no Syt1 [3]: 3 fold
